Laboratory results reported in patent publication US20230140293A1.

Columns and labels:
Experiment in all cases: cell-based or functional assay
[1] = biological target: CH0505TF.G458Y Env, Env-pseudotyped virus produced in 293S GnTI- cells (Man5-enriched) (HIV-1)
[2] = biological target: HIV-1 Env 426c.DM (N460D.N463D), Env-pseudotyped virus produced in 293T cells (HIV-1 clade C strain 426c)
[3] = biological target: HIV-1 Env 426c.TM (N276D.N460D.N463D), Env-pseudotyped virus produced in 293T cells (HIV-1 clade C strain 426c)
[4] = biological target: CH0505TF.gly3.276 Env, Env-pseudotyped virus produced in 293S GnTI- cells (Man5-enriched) (HIV-1)
[5] = biological target: CH0505TF Env, Env-pseudotyped virus produced in 293S GnTI- cells (Man5-enriched) (HIV-1)
[6] = biological target: HIV-1 426c.DM (N460D/N463D) Env on Env-pseudotyped virus produced in 293s/GnTI-/- cells (Man5-enrichment) (HIV-1)
[7] = biological target: HIV-1 clade C strain 426c Env on Env-pseudotyped virus produced in 293s/GnTI-/- cells (Man5-enrichment) (HIV-1)
[8] = biological target: CH0505TF Env, Env-pseudotyped virus produced in 293T cells (HIV-1)
[9] = biological target: CH0505TF.gly3.461 Env, Env-pseudotyped virus produced in 293S GnTI- cells (Man5-enriched) (HIV-1)
[10] = biological target: HIV-1 Env 426c.TM (N276D.N460D.N463D), Env-pseudotyped virus produced in 293S GnTI- cells (Man5-enriched) (HIV-1 clade C strain 426c)
[11] = biological target: CH0505.w4.3 Env, Env-pseudotyped virus produced in 293T cells (HIV-1)
[12] = biological target: CH0505TF.G458Y Env, Env-pseudotyped virus produced in 293T cells (HIV-1)
[13] = biological target: HIV-1 426c.TM (N276D/N460D/N463D) Env on Env-pseudotyped virus produced in 293s/GnTI-/- cells (Man5-enrichment) (HIV-1)
[14] = biological target: HIV-1 Env 426c.SM (N276D), Env-pseudotyped virus produced in 293S GnTI- cells (Man5-enriched) (HIV-1 clade C strain 426c)
[15] = biological target: HIV-1 426c.SM (N276D) Env on Env-pseudotyped virus produced in 293s/GnTI-/- cells (Man5-enrichment) (HIV-1)
[16] = biological target: HIV-1 Env 426c.DM (N460D.N463D), Env-pseudotyped virus produced in 293S GnTI- cells (Man5-enriched) (HIV-1 clade C strain 426c)
[17] = biological target: CH0505TF.gly4 Env, Env-pseudotyped virus produced in 293T cells (HIV-1)
[18] = biological target: CH0505TF.gly3.197 Env, Env-pseudotyped virus produced in 293T cells (HIV-1)
[19] = biological target: HIV-1 Env 426c.TM4 (S278R.G471S.N460D.N463D), Env-pseudotyped virus produced in 293S GnTI- cells (Man5-enriched) (HIV-1 clade C strain 426c)
[20] = biological target: HIV-1 426c.DM (N460D/N463D) Env on Env-pseudotyped virus produced in 293T cells (HIV-1)
[21] = biological target: CH0505TF.gly3.461 Env, Env-pseudotyped virus produced in 293T cells (HIV-1)
[22] = biological target: HIV-1 clade C strain 426c Env on Env-pseudotyped virus produced in 293T cells (HIV-1)
[23] = biological target: HIV-1 Env 426c.TM4 (S278R.G471S.N460D.N463D), Env-pseudotyped virus produced in 293T cells (HIV-1 clade C strain 426c)
[24] = biological target: CH0505TF.gly4 Env, Env-pseudotyped virus produced in 293S GnTI- cells (Man5-enriched) (HIV-1)
[25] = biological target: CH0505TF.gly3.276 Env, Env-pseudotyped virus produced in 293T cells (HIV-1)
[26] = biological target: HIV-1 Env 426c, Env-pseudotyped virus produced in 293S GnTI- cells (Man5-enriched) (HIV-1 clade C strain 426c)
[27] = biological target: HIV-1 426c.SM (N276D) Env on Env-pseudotyped virus produced in 293T cells (HIV-1)
[28] = biological target: HIV-1 426c.TM (N276D/N460D/N463D) Env on Env-pseudotyped virus produced in 293T cells (HIV-1)
[29] = biological target: HIV-1 Env 426c.SM (N276D), Env-pseudotyped virus produced in 293T cells (HIV-1 clade C strain 426c)
[30] = biological target: HIV-1 Env 426c, Env-pseudotyped virus produced in 293T cells (HIV-1 clade C strain 426c)
[31] = biological target: CH0505TF.gly3.197 Env, Env-pseudotyped virus produced in 293S GnTI- cells (Man5-enriched) (HIV-1)

| Substance | IC50 (µg/ml) in TZM-bl [1] [µg/mL] | IC50 (µg/ml) in TZM-bl [2] [µg/mL] | IC50 (µg/ml) in TZM-bl [3] [µg/mL] | IC50 (µg/ml) in TZM-bl [4] [µg/mL] | IC50 (µg/ml) in TZM-bl [5] [µg/mL] | ID50/IC50 in TZM-bl [6] [µg/mL] | ID50/IC50 in TZM-bl [7] [µg/mL] | IC50 (µg/ml) in TZM-bl [8] [µg/mL] | IC50 (µg/ml) in TZM-bl [9] [µg/mL] | IC50 (µg/ml) in TZM-bl [10] [µg/mL] | IC50 (µg/ml) in TZM-bl [11] [µg/mL] | IC50 (µg/ml) in TZM-bl [12] [µg/mL] | ID50/IC50 in TZM-bl [13] [µg/mL] | IC50 (µg/ml) in TZM-bl [14] [µg/mL] | ID50/IC50 in TZM-bl [15] [µg/mL] | IC50 (µg/ml) in TZM-bl [16] [µg/mL] | IC50 (µg/ml) in TZM-bl [17] [µg/mL] | IC50 (µg/ml) in TZM-bl [18] [µg/mL] | IC50 (µg/ml) in TZM-bl [19] [µg/mL] | ID50/IC50 in TZM-bl [20] [µg/mL] | further results |
| --- | --- | --- | --- | --- | --- | --- | --- | --- | --- | --- | --- | --- | --- | --- | --- | --- | --- | --- | --- | --- | --- |
| PGT151 (antibody) | > 5 | 0.01 | 0.01 | > 5 | > 5 | 2.2 | 1.6 | 0.01 | > 5 | 2.5 | > 25 | 0.01 | 2.5 | 1.9 | 1.9 | 2.2 | 0.01 | 0.01 | 2.9 | 0.01 | IC50 (µg/ml) in TZM-bl [21]: 0.01 µg/mL; ID50/IC50 in TZM-bl [22]: 0.01 µg/mL; IC50 (µg/ml) in TZM-bl [23]: 0.01 µg/mL; IC50 (µg/ml) in TZM-bl [24]: 0.13 µg/mL; IC50 (µg/ml) in TZM-bl [25]: 0.007 µg/mL; IC50 (µg/ml) in TZM-bl [26]: 1.6 µg/mL; ID50/IC50 in TZM-bl [27]: 0.01 µg/mL; ID50/IC50 in TZM-bl [28]: 0.01 µg/mL; IC50 (µg/ml) in TZM-bl [29]: 0.01 µg/mL; IC50 (µg/ml) in TZM-bl [30]: 0.01 µg/mL; IC50 (µg/ml) in TZM-bl [31]: > 5 µg/mL |
| 2557 (antibody) | > 25 | > 25 | > 25 | > 25 | > 25 | > 25 | > 25 | > 25 | > 25 | > 25 | > 25 | > 25 | > 25 | > 25 | > 25 | > 25 | > 25 | > 25 | > 25 | > 25 | IC50 (µg/ml) in TZM-bl [21]: > 25 µg/mL; ID50/IC50 in TZM-bl [22]: > 25 µg/mL; IC50 (µg/ml) in TZM-bl [23]: > 25 µg/mL; IC50 (µg/ml) in TZM-bl [24]: > 25 µg/mL; IC50 (µg/ml) in TZM-bl [25]: > 25 µg/mL; IC50 (µg/ml) in TZM-bl [26]: > 25 µg/mL; ID50/IC50 in TZM-bl [27]: > 25 µg/mL; ID50/IC50 in TZM-bl [28]: > 25 µg/mL; IC50 (µg/ml) in TZM-bl [29]: > 25 µg/mL; IC50 (µg/ml) in TZM-bl [30]: > 25 µg/mL; IC50 (µg/ml) in TZM-bl [31]: > 25 µg/mL |
| 4E10 (antibody) | 10 | 1 | 0.98 | 13 | 10 | 3.7 | 4 | 22 | 12 | 4 | > 50 | 8 | 4 | 3.8 | 3.8 | 3.7 | 14 | 21 | 1.6 | 1 | IC50 (µg/ml) in TZM-bl [21]: 16 µg/mL; ID50/IC50 in TZM-bl [22]: 3.32 µg/mL; IC50 (µg/ml) in TZM-bl [23]: 1.66 µg/mL; IC50 (µg/ml) in TZM-bl [24]: 12.3 µg/mL; IC50 (µg/ml) in TZM-bl [25]: 17 µg/mL; IC50 (µg/ml) in TZM-bl [26]: 4 µg/mL; ID50/IC50 in TZM-bl [27]: 1.52 µg/mL; ID50/IC50 in TZM-bl [28]: 0.98 µg/mL; IC50 (µg/ml) in TZM-bl [29]: 1.52 µg/mL; IC50 (µg/ml) in TZM-bl [30]: 3.32 µg/mL; IC50 (µg/ml) in TZM-bl [31]: 14 µg/mL |
